Molecular target: F-actin (rabbit skeletal muscle α-actin filaments) (rabbit) (UniProt P68135)
Experiment: co-sedimentation

Kd: 8.5 µM
Substance: F-tractinopt-mCherry (peptide)

Source: publication doi:10.1101/2024.10.07.616643
